B1: importin β from S. cerevisiae (ScKap95) (natural protein)
chain: MSTAEFAQLLENSILSPDQNIRLTSETQLKKLSNDNFLQFAGLSSQVLIDENTKLEGRILAALTLKNELVSKDSVKTQQFAQRWITQVSPEAKNQIKTNALTALVSIEPRIANAAAQLIAAIADIELPHGAWPELMKIMVDNTGAEQPENVKRASLLALGYMCESADPQSQALVSSSNNILIAIVQGAQSTETSKAVRLAALNALADSLIFIKNNMEREGERNYLMQVVCEATQAEDIEVQAAAFGCLCKIMSLYYTFMKPYMEQALYALTIATMKSPNDKVASMTVEFWSTICEEEIDIAYELAQFPQSPLQSYNFALSSIKDVVPNLLNLLTRQNEDPEDDDWNVSMSAGACLQLFAQNCGNHILEPVLEFVEQNITADNWRNREAAVMAFGSIMDGPDKVQRTYYVHQALPSILNLMNDQSLQVKETTAWCIGRIADSVAESIDPQQHLPGVVQACLIGLQDHPKVATNCSWTIINLVEQLAEATPSPIYNFYPALVDGLIGAANRIDNEFNARASAFSALTTMVEYATDTVAETSASISTFVMDKLGQTMSVDENQLTLEDAQSLQELQSNILTVLAAVIRKSPSSVEPVADMLMGLFFRLLEKKDSAFIEDDVFYAISALAASLGKGFEKYLETFSPYLLKALNQVDSPVSITAVGFIADISNSLEEDFRRYSDAMMNVLAQMISNPNARRELKPAVLSVFGDIASNIGADFIPYLNDIMALCVAAQNTKPENGTLEALDYQIKVLEAVLDAYVGIVAGLHDKPEALFPYVGTIFQFIAQVAEDPQLYSEDATSRAAVGLIGDIAAMFPDGSIKQFYGQDWVIDYIKRTRSGQLFSQATKDTARWAREQQKRQLSL
notes: Kap95 (importin β) of S. cerevisiae, PCR-amplified ORF
B2: GST-Nup100(1–610) (domain or fragment, S. cerevisiae, UniProt Q02629 1-610, looked up)
chain: MFGNNRPMFGGSNLSFGSNTSSFGGQQSQQPNSLFGNSNNNNNSTSNNAQSGFGGFTSAAGSNSNSLFGNNNTQNNGAFGQSMGATQNSPFGSLNSSNASNGNTFGGSSSMGSFGGNTNNAFNNNSNSTNSPFGFNKPNTGGTLFGSQNNNSAGTSSLFGGQSTSTTGTFGNTGSSFGTGLNGNGSNIFGAGNNSQSNTTGSLFGNQQSSAFGTNNQQGSLFGQQSQNTNNAFGNQNQLGGSSFGSKPVGSGSLFGQSNNTLGNTTNNRNGLFGQMNSSNQGSSNSGLFGQNSMNSSTQGVFGQNNNQMQINGNNNNSLFGKANTFSNSASGGLFGQNNQQQGSGLFGQNSQTSGSSGLFGQNNQKQPNTFTQSNTGIGLFGQNNNQQQQSTGLFGAKPAGTTGSLFGGNSSTQPNSLFGTTNVPTSNTQSQQGNSLFGATKLTNMPFGGNPTANQSGSGNSLFGTKPASTTGSLFGNNTASTTVPSTNGLFGNNANNSTSTTNTGLFGAKPDSQSKPALGGGLFGNSNSNSSTIGQNKPVFGGTTQNTGLFGATGTNSSAVGSTGKLFGQNNNTLNVGTQNVPPVNNTTQNALLGTTAVPSLQQAPVTN
notes: Nup100 of budding yeast, GLFG-type FG-repeat region, residues 1-610; source: E. coli BL21(DE3), purified (GSH beads, eluted with glutathione, dialysed); not shown: GST, N-terminal, kept

Legend:
ZZ-HsRanQ69L = ZZ-HsRanQ69L (human, UniProt P62826 1-216, Q69L); assay: SEC; 2 μM of each protein, 20 min on ice, Superdex 200 10/300 in Ran binding buffer (10 mM HEPES pH 7.4, 150 mM NaCl, 2 mM MgOAc2, 1 mM DTT); fractions by SDS-PAGE (SYPRO Ruby) and Western blot against the ZZ-tag; conditions: both partners purified
[1] = target: B1; assay: pull-down; GST-FG fusions pre-bound to GSH beads; soluble protein (100-500 pmol) pre-mixed with 200 μg bacterial extract proteins in 0.5 ml pulldown buffer (10 mM HEPES pH 7.5, 160 mM KOAc, 1 mM MgOAc2, 1 mM DTT, 0.01% Triton X-100); 20 min, room temperature; eluted with 1 M NaCl, then SDS-sample buffer; SDS-PAGE, SYPRO Ruby; conditions: both partners purified

Row | binding result (ZZ-HsRanQ69L) | binding result [1] | Binder
1 | binds | – | B1
2 | – | binds | B2

— paper PMC3679522 (eLife, 2013)
